# Where no end group is shown, it is not given here. The star is where a group is joined. FA1 = tetradecanamide (myristoyl) lipid attached through an ethoxy-ethoxy-ethyl acetamide linker, made from Br-FA1, N-(2-(2-(2-(2-bromoacetamido)ethoxy)ethoxy)ethyl)tetradecanamide, CCCCCCCCCCCCCC(=O)NCCOCCOCCNC(=O)C*; FA2 = not defined here; FA3 = not defined here
# B1: Relaxin-B-D1AM25KS29C-FA2 (ligand)
# chain 1: ASWMEEVIKLCGRELVRAQIAICGKSTWC
# chain 2: QLYSALANKCCHVGCTKRSLARFC
# modifications: ends and bridges not checked; also: lipid conjugate FA2, site not given here
# B2: GSGG-Relaxin-single-chain (ligand)
# chain: GSGGDSWMEEVIKLCGRELVRAQIAICGMSTWSGGGRGGRQLYSALANKCCHVGCTKRSLARFC
# B3: Relaxin-B-D1AM25KM4K, A-Q1AH12K, B-S29C-FA1 (ligand)
# chain 1: ASWKEEVIKLCGRELVRAQIAICGKSTWC(FA1)
# chain 2: ALYSALANKCCKVGCTKRSLARFC
# modifications: ends and bridges not checked; also: A and B chains disulfide-linked, pairing not given here
# B4: Relaxin-A-H12K, B-D1AS29C-FA2 (ligand)
# chain 1: ASWMEEVIKLCGRELVRAQIAICGMSTWC(FA2)
# chain 2: QLYSALANKCCKVGCTKRSLARFC
# modifications: ends and bridges not checked; also: A and B chains disulfide-linked, pairing not given here
# B5: Relaxin-B-D1AS29C-XTEN288 (ligand)
# chain 1: ASWMEEVIKLCGRELVRAQIAICGMSTWC
# chain 2: QLYSALANKCCHVGCTKRSLARFC
# chain 3: SAGSPTGPGSEPATSGSETPGTSESATPESGPGSEPATSGSETPGTSESATPESGPGTSTEPSEGSAPGSPAGSPTSTEEGTSESATPESGPGSEPATSGSETPGTSESATPESGPGSPAGSPTSTEEGSPAGSPTSTEEGTSTEPSEGSAPGTSESATPESGPGTSESATPESGPGTSESATPESGPGSEPATSGSETPGSEPATSGSETPGSPAGSPTSTEEGTSTEPSEGSAPGTSTEPSEGSAPGSEPATSGSETPGTSESATPESGPGTSTEPSEGSAPSASR
# B6: Relaxin-B-D1A, A-A5C-FA2 (ligand)
# chain 1: ASWMEEVIKLCGRELVRAQIAICGMSTWS
# chain 2: QLYSC(FA2)LANKCCHVGCTKRSLARFC
# modifications: ends and bridges not checked; also: A and B chains disulfide-linked, pairing not given here
# B7: Relaxin-B-D1A, A-A5C-FA3 (ligand)
# chain 1: ASWMEEVIKLCGRELVRAQIAICGMSTWS
# chain 2: QLYSC(FA3)LANKCCHVGCTKRSLARFC
# modifications: ends and bridges not checked; also: A and B chains disulfide-linked, pairing not given here
# B8: Relaxin-B-D1A, A-Q1C-FA3 (ligand)
# chain 1: ASWMEEVIKLCGRELVRAQIAICGMSTWS
# chain 2: C(FA3)LYSALANKCCHVGCTKRSLARFC
# modifications: ends and bridges not checked; also: A and B chains disulfide-linked, pairing not given here
# B9: Relaxin-B-D1A, A-R18C-FA3 (ligand)
# chain 1: ASWMEEVIKLCGRELVRAQIAICGMSTWS
# chain 2: QLYSALANKCCHVGCTKC(FA3)SLARFC
# modifications: ends and bridges not checked; also: A and B chains disulfide-linked, pairing not given here
# B10: Relaxin-B-D1AM4KS29C-FA2 (ligand)
# chain 1: ASWKEEVIKLCGRELVRAQIAICGMSTWC
# chain 2: QLYSALANKCCHVGCTKRSLARFC
# modifications: ends and bridges not checked; also: lipid conjugate FA2, site not given here
# B11: Relaxin-B-D1A, A-Q1C-FA2 (ligand)
# chain 1: ASWMEEVIKLCGRELVRAQIAICGMSTWS
# chain 2: C(FA2)LYSALANKCCHVGCTKRSLARFC
# modifications: ends and bridges not checked; also: A and B chains disulfide-linked, pairing not given here
# B12: Relaxin-B-D1A (ligand)
# chain 1: ASWMEEVIKLCGRELVRAQIAICGMSTWS
# chain 2: QLYSALANKCCHVGCTKRSLARFC
# modifications: ends and bridges not checked; cysteine pairing not given here
# B13: Relaxin-B-D1A, A-R18C-FA2 (ligand)
# chain 1: ASWMEEVIKLCGRELVRAQIAICGMSTWS
# chain 2: QLYSALANKCCHVGCTKC(FA2)SLARFC
# modifications: ends and bridges not checked; also: A and B chains disulfide-linked, pairing not given here
# B14: Relaxin-B-D1AM25KM4K, A-Q1AH12K, B-S29C-FA2 (ligand)
# chain 1: ASWKEEVIKLCGRELVRAQIAICGKSTWC(FA2)
# chain 2: ALYSALANKCCKVGCTKRSLARFC
# modifications: ends and bridges not checked; also: A and B chains disulfide-linked, pairing not given here
# B15: Relaxin-B-D1A, A-Q1C-FA1 (ligand)
# chain 1: ASWMEEVIKLCGRELVRAQIAICGMSTWS
# chain 2: C(FA1)LYSALANKCCHVGCTKRSLARFC
# modifications: ends and bridges not checked; also: A and B chains disulfide-linked, pairing not given here
# B16: Tev-Relaxin (ligand)
# chain 1: HHHHHHHHENLYFQSGGDSWMEEVIKLCGRELVRAQIAICGMSTWS
# chain 2: QLYSALANKCCHVGCTKRSLARFC
# B17: Relaxin-B-D1A, A-R18C-FA1 (ligand)
# chain 1: ASWMEEVIKLCGRELVRAQIAICGMSTWS
# chain 2: QLYSALANKCCHVGCTKC(FA1)SLARFC
# modifications: ends and bridges not checked; also: A and B chains disulfide-linked, pairing not given here
# B18: Relaxin-B-D1AM25KM4K, A-Q1AH12K, B-S29C-FA3 (ligand)
# chain 1: ASWKEEVIKLCGRELVRAQIAICGKSTWC(FA3)
# chain 2: ALYSALANKCCKVGCTKRSLARFC
# modifications: ends and bridges not checked; also: A and B chains disulfide-linked, pairing not given here
# B19: Tev-Relaxin-single-chain (ligand)
# chain: HHHHHHHHENLYFQGSGGDSWMEEVIKLCGRELVRAQIAICGMSTWSGGGRGGRQLYSALANKCCHVGCTKRSLARFC
# B20: Tev-Relaxin-B-S29C-FA1-single-chain (ligand)
# chain: HHHHHHHHENLYFQGSGGDSWMEEVIKLCGRELVRAQIAICGMSTWCGGGRGGRQLYSALANKCCHVGCTKRSLARFC
# modifications: lipid FA1 on the Cys at B-chain position 29 (from Br-FA1, Example 5)
# B21: Tev-Relaxin-B-S29C-single-chain (ligand)
# chain: HHHHHHHHENLYFQGSGGDSWMEEVIKLCGRELVRAQIAICGMSTWCGGGRGGRQLYSALANKCCHVGCTKRSLARFC
# B22: Tev-Relaxin-C chain (ligand)
# chain: HHHHHHHHENLYFQGSGGDSWMEEVIKLCGRELVRAQIAICGMSTWSKRSLSQEDAPQTPRPVAEIVPSFINKDTETINMMSEFVANLPQELKLTLSEMQPALPQLQQHVPVLKDSSLLFEEFKKLIRNRQSEAADSSPSELKYLGLDTHSRKKRQLYSALANKCCHVGCTKRSLARFC
# B23: Tev-Relaxin-B-S29C-FA1-C-Chain (ligand)
# chain: HHHHHHHHENLYFQGSGGDSWMEEVIKLCGRELVRAQIAICGMSTWCKRSLSQEDAPQTPRPVAEIVPSFINKDTETINMMSEFVANLPQELKLTLSEMQPALPQLQQHVPVLKDSSLLFEEFKKLIRNRQSEAADSSPSELKYLGLDTHSRKKRQLYSALANKCCHVGCTKRSLARFC
# modifications: lipid FA1 on the Cys at B-chain position 29 (from Br-FA1, Example 5)
# B24: Pro-Relaxin-B-D1A (ligand)
# chain: MIEEGRDSWMEEVIKLCGRELVRAQIAICGMSTWSKRKPTGYGSRKKRQLYSALANKCCHVGCTKRSLARFC
# Legend:
# LGR7 [1] = target: T1, LGR7 (UniProt Q9HBX9 1-757, limits assumed); assay: cell-based or functional assay
# T1 sequence (looked up): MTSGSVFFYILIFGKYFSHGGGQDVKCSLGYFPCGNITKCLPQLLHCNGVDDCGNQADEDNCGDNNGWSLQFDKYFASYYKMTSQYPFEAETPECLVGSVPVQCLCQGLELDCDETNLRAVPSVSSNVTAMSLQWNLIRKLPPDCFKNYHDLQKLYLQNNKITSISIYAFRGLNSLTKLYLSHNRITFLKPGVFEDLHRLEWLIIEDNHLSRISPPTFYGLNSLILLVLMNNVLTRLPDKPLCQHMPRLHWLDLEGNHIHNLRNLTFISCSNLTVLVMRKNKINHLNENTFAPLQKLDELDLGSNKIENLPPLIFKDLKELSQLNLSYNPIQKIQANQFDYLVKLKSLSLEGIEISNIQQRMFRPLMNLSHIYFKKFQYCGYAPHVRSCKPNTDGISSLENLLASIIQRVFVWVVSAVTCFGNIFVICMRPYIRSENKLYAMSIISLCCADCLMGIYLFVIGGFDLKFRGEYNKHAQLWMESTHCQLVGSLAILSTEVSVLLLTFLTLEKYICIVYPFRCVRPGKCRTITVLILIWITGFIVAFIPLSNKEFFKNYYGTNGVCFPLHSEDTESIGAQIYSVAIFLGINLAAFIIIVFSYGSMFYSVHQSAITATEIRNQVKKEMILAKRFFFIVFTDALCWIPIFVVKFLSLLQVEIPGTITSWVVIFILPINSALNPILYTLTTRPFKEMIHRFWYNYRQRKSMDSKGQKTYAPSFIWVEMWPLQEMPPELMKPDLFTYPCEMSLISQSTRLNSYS
# LGR7 [2] = target: T1, LGR7; assay: cell-based or functional assay; remark: listed apart in the source
binder,measurement,setting,value
B1,"Activity, fold drop compared to relaxin",LGR7 [1],48 fold
B2,Activity,LGR7 [2],1 nM
B3,"Activity, fold drop compared to relaxin",LGR7 [1],25 fold
B4,"Activity, fold drop compared to relaxin",LGR7 [1],16 fold
B5,"Activity, fold drop compared to relaxin",LGR7 [1],20 fold
B6,"Activity, fold drop compared to relaxin",LGR7 [1],25 fold
B7,"Activity, fold drop compared to relaxin",LGR7 [1],15 fold
B8,"Activity, fold drop compared to relaxin",LGR7 [1],25 fold
B9,"Activity, fold drop compared to relaxin",LGR7 [1],30 fold
B10,"Activity, fold drop compared to relaxin",LGR7 [1],40 fold
B11,"Activity, fold drop compared to relaxin",LGR7 [1],15 fold
B12,"Activity, fold drop compared to relaxin",LGR7 [1],0 fold
B13,"Activity, fold drop compared to relaxin",LGR7 [1],30 fold
B14,"Activity, fold drop compared to relaxin",LGR7 [1],150 fold
B15,"Activity, fold drop compared to relaxin",LGR7 [1],10 fold
B16,Activity,LGR7 [2],2 nM
B17,"Activity, fold drop compared to relaxin",LGR7 [1],15 fold
B18,"Activity, fold drop compared to relaxin",LGR7 [1],150 fold
B19,Activity,LGR7 [2],14 nM
B20,Activity,LGR7 [2],29 nM
B21,Activity,LGR7 [2],11 nM
B22,Activity,LGR7 [2],6 nM
B23,Activity,LGR7 [2],21 nM
B24,"Activity, fold drop compared to relaxin",LGR7 [1],10 fold

# Source: patent US20160287713A1 (CALIFORNIA INSTITUTE FOR BIOMEDICAL RESEARCH, published 2016)
